From the supplement of paper PMC10126150
± gives the standard deviation of the averaged measurements.

Tested on: ATP
Assay: switch fluorescence ratio, 500 uM ATP over buffer (Cy3 cluster intensity, sum of 5 cycles each) (fold (ratio)); higher = stronger signal-on switching upon ATP binding; sequences stand for … in TCGTCGGCAGCGTCAGATGTGTATAAGAGACAGTTTTTTTTTTTTTTTTTTTTTTTTT…TC
Conditions: aptamer strand: ATP DNA aptamer (quencher-CACCTGGGGGAGTATTGCGGAGGAAGG + anchor), 100 nM annealed; ATP concentration: 500 uM
Outline: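 For every switch-domain sequence, the fluorescence ratio is the mean of per-cluster values, each being summed target-cycle Cy3 intensity over summed buffer-cycle Cy3 intensity. Clusters outside 100-1000 RFU were excluded. On a modified Illumina MiSeq flow-cell, the Cy3-labelled switching-strand clusters were annealed to 100 nM quencher-labelled ATP aptamer, imaged in selection buffer and then after 15 min with 500 uM ATP at 22 °C. Five such cycles were run, with NaOH stripping and re-annealing between them.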
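Also: ATP exposure 15 min at 22 °C before imaging.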

Sequence | switch fluorescence ratio
ATGTTGATAT | 1.01 ± 0.045
ATGTTGGGAA | 0.978 ± 0.029
ATGTTGGGGG | 0.989 ± 0.018
ATGTTGGGGT | 1 ± 0.029
ATGTTGTGGT | 0.987 ± 0.031
ATGTTTATCT | 0.979 ± 0.044
ATGTTTGCTT | 0.974 ± 0.025
ATGTTTGTTT | 0.993 ± 0.05
ATGTTTTAGG | 1.01 ± 0.047
ATGTTTTCCT | 1.0718 ± 0.00067
ATGTTTTTAG | 0.991 ± 0.018
ATTAAAAATC | 0.968 ± 0.036
ATTAAACGGG | 0.997 ± 0.012
ATTAAATAAC | 1.02 ± 0.02
ATTAAATCAG | 1.013 ± 0.0058
ATTAAATGAT | 0.9574 ± 0.002
ATTAACCAGG | 1.27 ± 0.065
ATTAACTTTG | 1.01 ± 0.05
ATTAAGAGTA | 0.961 ± 0.012
ATTAAGGATT | 1.01 ± 0.016
ATTAAGGCCC | 0.988 ± 0.044
ATTAAGGCGC | 0.998 ± 0.029
ATTAAGGGCA | 0.97 ± 0.011
ATTAAGGTAA | 1.01 ± 0.033
ATTAAGTTGG | 0.982 ± 0.022

Sequence | switch fluorescence ratio
ATTAAGTTTC | 0.9675 ± 0.0012
ATTAAGTTTT | 1 ± 0.028
ATTAATAGTT | 0.997 ± 0.053
ATTAATTTTG | 0.992 ± 0.023
ATTACGGAGA | 1.05 ± 0.069
ATTACGGGAT | 1.01 ± 0.062
ATTACGTAGC | 1.428 ± 0.0063
ATTACTGAGT | 1.03 ± 0.015
ATTACTGTGC | 0.94 ± 0.02
ATTACTTAAG | 1 ± 0.046
ATTAGAAGGG | 0.985 ± 0.061
ATTAGAATGG | 1 ± 0.01
ATTAGACGGA | 1.058 ± 0.0045
ATTAGATATA | 1 ± 0.035
ATTAGATTTT | 1.02 ± 0.12
ATTAGGAGAT | 0.9964 ± 0.0063
ATTAGGATTG | 1 ± 0.053
ATTAGGGGAG | 0.972 ± 0.0028
ATTAGGGTAT | 1.0078 ± 0.00026
ATTAGGTATG | 0.969 ± 0.016
ATTAGGTTGA | 0.975 ± 0.0047
ATTAGTACTG | 1.02 ± 0.02
ATTAGTCAGG | 1.03 ± 0.019
ATTAGTCGGT | 0.97109 ± 0.00068
ATTAGTTTTG | 0.99 ± 0.029

Sequence | switch fluorescence ratio
ATTATACGGC | 1.056 ± 0.0042
ATTATAGGGG | 0.986 ± 0.0017
ATTATAGTAA | 0.9886 ± 0.0022
ATTATATGTG | 1.02 ± 0.027
ATTATCAGTT | 0.987 ± 0.021
ATTATCGCGC | 0.983 ± 0.031
ATTATCTACT | 1.04 ± 0.026
ATTATGACGG | 0.982 ± 0.047
ATTATGAGTA | 0.9727 ± 0.0091
ATTATGATAT | 1.01 ± 0.015
ATTATGGAAG | 0.994 ± 0.018
ATTATGGCAC | 1.01 ± 0.0041
ATTATGGCGT | 0.999 ± 0.013
ATTATGGGAG | 0.989 ± 0.011
ATTATGGGTA | 1.02 ± 0.036
ATTATGGTCG | 0.999 ± 0.084
ATTATGTACT | 1.05 ± 0.022
ATTATGTCTG | 0.966 ± 0.071
ATTATTAATT | 0.973 ± 0.022
ATTATTACGT | 0.99 ± 0.038
ATTATTGACT | 1.04 ± 0.014
ATTATTGGCG | 1.01 ± 0.042
ATTATTGGGA | 1 ± 0.046
ATTATTGGGG | 0.9642 ± 0.0086
ATTCAAAAAA | 0.999 ± 0.039

Sequence | switch fluorescence ratio
ATTCAAATGT | 1 ± 0.03
ATTCAGGCTT | 1.029 ± 0.0019
ATTCAGGTTC | 0.996 ± 0.032
ATTCAGGTTG | 1.02 ± 0.016
ATTCATATGT | 0.999 ± 0.018
ATTCATGTGT | 1.02 ± 0.026
ATTCATTATT | 0.9927 ± 0.0049
ATTCATTGC | 1.038 ± 0.0048
ATTCATTGGG | 0.9872 ± 0.0075
ATTCCAATTT | 1.08 ± 0.035
ATTCCCAATT | 1.04 ± 0.025
ATTCGCCACT | 1.011 ± 0.0012
ATTCGCGAGG | 0.982 ± 0.027
ATTCGGGGCT | 1 ± 0.038
ATTCGGGGGG | 0.99 ± 0.022
ATTCGGTCTG | 0.9825 ± 0.006
ATTCGGTTGT | 1.001 ± 0.0059
ATTCGTGCGC | 1.071 ± 0.0046
ATTCGTTATG | 1 ± 0.013
ATTCGTTGG | 1 ± 0.038
ATTCTACGGC | 1.06 ± 0.073
ATTCTAGTAT | 0.962 ± 0.026
ATTCTAGTCG | 1.02 ± 0.086
ATTCTCCTTG | 1 ± 0.017
ATTCTCTGGT | 1.01 ± 0.076

Sequence | switch fluorescence ratio
ATTCTGCTCC | 0.991 ± 0.041
ATTCTTTGGT | 0.979 ± 0.054
ATTCTTTGTT | 0.962 ± 0.045
ATTCTTTTGG | 0.9726 ± 0.0041
ATTGAAGATT | 0.989 ± 0.037
ATTGACGAGG | 1.001 ± 0.0026
ATTGACGGGT | 0.9762 ± 0.0085
ATTGAGAGGG | 1.07 ± 0.075
ATTGAGCGGG | 1 ± 0.034
ATTGAGGAAT | 0.965 ± 0.064
ATTGAGGGGA | 0.994 ± 0.032
ATTGAGGGTC | 0.986 ± 0.018
ATTGAGTTAG | 0.99 ± 0.011
ATTGAGTTAT | 0.967 ± 0.019
ATTGATAGCA | 1.03 ± 0.028
ATTGATCTCC | 1.03 ± 0.072
ATTGATGATA | 1.018 ± 0.0092
ATTGATGGCC | 0.963 ± 0.032
ATTGATTCGG | 0.999 ± 0.014
ATTGCAGCGG | 1 ± 0.02
ATTGCATTCA | 0.9949 ± 0.0041
ATTGCCCGTT | 1.09 ± 0.21
ATTGCCGAGT | 1.03 ± 0.022
ATTGCGCAAG | 1.01 ± 0.02
ATTGCTATGG | 1.01 ± 0.016

Sequence | switch fluorescence ratio
ATTGCTATTC | 1.03 ± 0.014
ATTGCTGGGG | 1.01 ± 0.056
ATTGGAAAAG | 0.985 ± 0.035
ATTGGACTAG | 0.989 ± 0.07
ATTGGACTG | 1.01 ± 0.035
ATTGGAGGGT | 0.979 ± 0.025
ATTGGAGTGG | 0.994 ± 0.032
ATTGGATGTG | 0.981 ± 0.019
ATTGGCGTGC | 0.987 ± 0.03
ATTGGCGTGG | 1.01 ± 0.019
ATTGGGAGAT | 1.024 ± 0.0064
ATTGGGAGGT | 0.972 ± 0.033
ATTGGGCAGT | 0.973 ± 0.053
ATTGGGGAGA | 1.04 ± 0.052
ATTGGGGAGC | 0.989 ± 0.014
ATTGGGGATT | 1.013 ± 0.009
ATTGGGGCGC | 0.991 ± 0.041
ATTGGGTCGG | 0.996 ± 0.02
ATTGGTAGAG | 0.9717 ± 0.0024
ATTGGTAGTG | 0.997 ± 0.034
ATTGGTCAGC | 0.982 ± 0.035
ATTGGTGTAG | 0.972 ± 0.023
ATTGTAGGC | 1.01 ± 0.029
ATTGTAGTTT | 1 ± 0.066
ATTGTATAAG | 0.9828 ± 0.0052

Sequence | switch fluorescence ratio
ATTGTATCAG | 0.983 ± 0.027
ATTGTATGGA | 1 ± 0.011
ATTGTATGGT | 0.956 ± 0.012
ATTGTCAGTT | 1.013 ± 0.0029
ATTGTCGTGA | 0.991 ± 0.037
ATTGTCTAGC | 0.999 ± 0.019
ATTGTCTTCG | 0.987 ± 0.041
ATTGTGAACG | 1 ± 0.042
ATTGTGATGA | 1.024 ± 0.0085
ATTGTGCCGA | 0.972 ± 0.011
ATTGTGCGAC | 1 ± 0.021
ATTGTGCTTT | 1.04 ± 0.024
ATTGTGGAGC | 1.04 ± 0.061
ATTGTGGGGT | 0.977 ± 0.04
ATTGTGGTCC | 1.007 ± 0.0082
ATTGTGTTTT | 0.99 ± 0.062
ATTGTTGATC | 1.01 ± 0.029
ATTGTTTAAG | 1.01 ± 0.024
ATTGTTTAGC | 1.01 ± 0.075
ATTGTTTCCT | 1.06 ± 0.039
ATTTACGAGT | 0.981 ± 0.045
ATTTACGGGT | 1.015 ± 0.0082
ATTTAGGACT | 0.978 ± 0.027
ATTTAGGGTA | 0.9856 ± 0.0078
ATTTAGTTTA | 0.996 ± 0.017

Sequence | switch fluorescence ratio
ATTTATGCGG | 0.985 ± 0.029
ATTTATGGTA | 0.971 ± 0.014
ATTTATGTAA | 0.987 ± 0.012
ATTTATGTTT | 0.979 ± 0.03
ATTTATTCCT | 1.05 ± 0.015
ATTTATTCTA | 0.976 ± 0.036
ATTTATTCTT | 1.011 ± 0.0052
ATTTATTTGT | 0.986 ± 0.03
ATTTCAGTGT | 1.009 ± 0.0044
ATTTCATGCG | 1.03 ± 0.023
ATTTCATGTG | 0.9853 ± 0.0035
ATTTCCACAA | 1.1 ± 0.03
ATTTCCTGTG | 1.042 ± 0.0014
ATTTCGGGGT | 1.01 ± 0.042
ATTTCGGTCT | 0.9892 ± 0.0049
ATTTCTTTCA | 1.02 ± 0.033
ATTTGAAACT | 1.02 ± 0.029
ATTTGAAGGT | 1.01 ± 0.018
ATTTGAATGG | 0.987 ± 0.027
ATTTGAGGGC | 1.01 ± 0.033
ATTTGAGTTT | 1.01 ± 0.038
ATTTGATTTG | 1 ± 0.046
ATTTGCCCAT | 0.986 ± 0.019
ATTTGCGTAC | 1.277 ± 0.0018
ATTTGCTATT | 1.003 ± 0.0045
